# Values of other authors as cited in article PMC7811009, “Oxytocin modulates local topography of human functional connectome in healthy men at rest” (Communications Biology, 2021).
# How the values were obtained:
# [1] = intravenous infusion, primates; cited from earlier work
# Description: It is not yet clear which precise mechanisms mediate the effects of intravenous oxytocin on brain function. […] At least three mechanisms have been postulated. First, it is possible that the direct peripheral effects of oxytocin on oxytocin receptors expressed in vegetative territories, such as the heart, may be an indirect source of changes in the brain.
# [2] = rhesus monkeys, cited from earlier work
# Description: Our findings support our previous observations that increases in oxytocin in systemic circulation cannot fully account for the changes in rCBF observed after intranasal oxytocin[11] and lend support to the contribution of nose-to-brain pathways to the effects of intranasal oxytocin on brain function. However, they cannot highlight the precise mechanisms of transport underlying its functional effects. We believe that most evidence to date concurs on the idea that oxytocin, when administered intranasally, may diffuse from the olfactory and respiratory epithelia in the middle and upper poster ...
substance,measurement,setting,value
labelled synthetic oxytocin: labelled synthetic oxytocin given intravenously or intranasally to primates / rhesus monkeys in cited studies,Synthetic oxytocin levels in the CSF,[1],increased synthetic oxytocin levels in the CSF
same,Brain regions reached,[2]; administered intranasally,"reaches several brain regions (orbitofrontal cortex, striatum, thalamus and brainstem)"
same,"Labelled oxytocin in brain regions (orbitofrontal cortex, striatum, thalamus and brainstem)",[2]; same doses administered intravenously,No detectable amounts
